The values that follow come from patent US20170002051A1.

One assay concerns the target porcine CSF1R (porcine) (UniProt K9IVS4). Briefly: cell-based or functional assay.
The target of the next assay is chicken CSF1R (chicken). Briefly: cell-based or functional assay.

Substance “recombinant porcine CSF1 (from UniProt A0A287BPE2 36-189) (ligand)” gave a survival/proliferation of BaF/3 cells expressing porcine CSF1R (Cell TiterGlo), EC50 with porcine CSF1R (porcine) of 0.03 µg/mL. On the same count and under the same terms, the result for “recombinant human CSF1 (Sigma 6518) (from UniProt P09603 33-190) (ligand)” reads 0.03 µg/mL. The substance “recombinant chicken CSF1 (active fragment of chicken CSF-1, expressed in E. coli from pTLW54, refolded) (ligand)” gave a survival/proliferation of BaF/3 cells expressing chicken CSF1R (Cell TiterGlo), EC50 with chicken CSF1R (chicken) of 0.02 µg/mL.
